In patent publication US20230212291A1 (BEIGENE, published 2023):

Biological target: T1, full-length human OX40 expressed on HuT78 cells (HuT78/OX40) (human, UniProt P43489 29-277)
T1 sequence: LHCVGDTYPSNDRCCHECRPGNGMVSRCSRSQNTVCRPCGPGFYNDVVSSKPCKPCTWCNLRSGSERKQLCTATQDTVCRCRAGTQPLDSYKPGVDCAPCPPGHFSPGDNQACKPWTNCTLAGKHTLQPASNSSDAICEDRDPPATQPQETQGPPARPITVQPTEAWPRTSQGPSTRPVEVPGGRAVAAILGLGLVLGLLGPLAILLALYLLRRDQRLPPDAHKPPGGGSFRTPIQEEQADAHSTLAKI
Assay: cell-based or functional assay

B1: 445-3 (antibody, human IgG1, V domains shown)
VH: QVQLVQSGAEVKKPGSSVKVSCKASGYKFTSYIIHWVRQAPGQGLEWMGYINPYNEGTRYNQKFQGRVTLTADKSTSTAYMELSSLRSEDTAVYYCARGYYGSSYAMDYWGQGTTVTVSS
VL: DIQMTQSPSSLSASVGDRVTITCRASQGISNYLNWYQQKPDGAIKLLIYDASTLYSGVPSRFSGSGSGTDFTLTISSLQPEDFATYYCQQYSKLPYTFGGGTKVEIK
ADCC (LDH release), NK92MI/CD16V effector cells, HuT78/OX40 target cells (EC50): 27 ng/mL
IL-2 production by HuT78/OX40 cells co-cultured with HEK293/OS8Low-FcγRI cells (EC50): 0.06 ng/mL
